Reference: the RNAGym collection of RNA variant scans (doi:10.1073/pnas.2313332121)

B1: TPR t1 (parent)
chain: GACCAAUCUGCCCUCAGAGCUCGAGAACAUCUUCGGAUGCAGAGGAGGCAGGCUUCGGUGGCGCGAUAGCGCCAACGUCCUCAACCUCCAAUGCAUCCCACCACAUGAUGAUGCCUGAAGAGCCUUGGUUUUUUG

Variants of: B1
Experiment: polymerase ribozyme fitness, log enrichment relative to wild type (log ratio); higher = more active; in vitro selection for triplet polymerase activity
Summary of the method: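 PCR was used to build mutant libraries for each subunit of a heterodimeric triplet polymerase ribozyme, which were then transcribed. A single in vitro selection round, in triplicate, used a frozen incubation at −7 °C and recovered extended constructs by gel excision, streptavidin beads and RT-PCR. Fitness is the logarithm of genotype enrichment relative to wild-type enrichment, averaged over replicates with inverse-variance weights. The logarithm is base 2, and after Illumina sequencing only genotypes with ≥10 input reads and ≥1 read per output were kept.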

Going from U21G U38C G71C C99G C114U G120U A121U to C22U G63C C88A U130C, the “polymerase ribozyme fitness (log ratio)” value rises from -7.22 to -5.23.

First: C22U C85A
Second: C22U C85U
The “polymerase ribozyme fitness (log ratio)” value of the first is lower: -6.28 for the first, -4.5 for the second.

Compared with C22U G45U G47C, C22G A74C is higher in “polymerase ribozyme fitness (log ratio)” value: -7.47 for the first, -3.02 for the second.

First: C22U A46U G69U G117A
Second: C22G G57A G63A C101A A105U
The “polymerase ribozyme fitness (log ratio)” value of the first is higher: -4.33 for the first, -6.73 for the second.

First: U21C A46G C53A C98U
Second: C22G G44U U109G G110C
The “polymerase ribozyme fitness (log ratio)” value of the first is higher: -3.28 for the first, -5.8 for the second.

Compared with C22A C64U, C22A G63A C94A A100U C115A is lower in “polymerase ribozyme fitness (log ratio)” value: -4.37 for the first, -5.85 for the second.

Compared with U21G C72G, C22A C70A G122U is lower in “polymerase ribozyme fitness (log ratio)” value: -1.39 for the first, -5.4 for the second.

C22G G60C and C22G G60A are within 0.2 log units of each other in “polymerase ribozyme fitness (log ratio)” value: -3.23 for the first, -3.33 for the second.

Compared with C22G A50U C56U C76U C88G C124G, U21C C62U A83U U87G is higher in “polymerase ribozyme fitness (log ratio)” value: -5.33 for the first, 0.103 for the second.

Going from U21G G39A to C22A C73U A83G C115A, the “polymerase ribozyme fitness (log ratio)” value falls from -1.39 to -4.8.

Compared with C22A A26C A27U C86A U112C, C22U C115G is higher in “polymerase ribozyme fitness (log ratio)” value: -6.59 for the first, -4.6 for the second.

Compared with C22U G63U U78G U112A, U21G C88A is higher in “polymerase ribozyme fitness (log ratio)” value: -6.24 for the first, -1.66 for the second.

First: C22G G61A C62U C104U G120A
Second: U21G G36A U54A G63U C82A C123A
The “polymerase ribozyme fitness (log ratio)” value of the first is lower: -4.48 for the first, -3.52 for the second.

First: C22A C31G C62U C94A G110C
Second: C22G A43U A46G U59A G120C
The “polymerase ribozyme fitness (log ratio)” value of the first is lower: -6.66 for the first, -4.94 for the second.

Going from C22A C73G to C22A C73U, the “polymerase ribozyme fitness (log ratio)” value falls from -4.45 to -5.07.

Compared with U21C C72U G93A U96G, C22U G69U C94G is higher in “polymerase ribozyme fitness (log ratio)” value: -2.4 for the first, -1.67 for the second.

First: C22A C53U C64U C124U
Second: C22A A27C C124A
The “polymerase ribozyme fitness (log ratio)” value of the first is higher: -3.7 for the first, -4.12 for the second.

Compared with U21C G52C G61A C82A, C22U A37U is lower in “polymerase ribozyme fitness (log ratio)” value: -0.816 for the first, -4.82 for the second.

First: C22A C72G
Second: C22A C72U
The “polymerase ribozyme fitness (log ratio)” value of the first is higher: -4.59 for the first, -4.98 for the second.

Going from C22A G42A C73A to C22G A46C, the “polymerase ribozyme fitness (log ratio)” value rises from -7.34 to -3.97.

First: U21C U54A G93A A111C
Second: C22A A37G U81A A121C
The “polymerase ribozyme fitness (log ratio)” value of the first is higher: -0.948 for the first, -6.04 for the second.

First: C22G C72G U81A
Second: C22A G110U
The “polymerase ribozyme fitness (log ratio)” value of the first is higher: -4.32 for the first, -5.03 for the second.

Compared with U21G A46U G69U G117C, C22G A29C A84C is higher in “polymerase ribozyme fitness (log ratio)” value: -4.95 for the first, -3.73 for the second.

First: C22G C82A A83U G93C
Second: C22U C34U C73U A83C C124G
The “polymerase ribozyme fitness (log ratio)” value of the first is higher: -4.04 for the first, -6.07 for the second.

Compared with C22U A43G G61A C115A, C22G G47U is higher in “polymerase ribozyme fitness (log ratio)” value: -5.11 for the first, -4.11 for the second.

Compared with U21G C22A A74G, C22G U106A is higher in “polymerase ribozyme fitness (log ratio)” value: -4.4 for the first, -2.37 for the second.

Compared with C22G U54A, C22G A43U C72G U106A C115A is higher in “polymerase ribozyme fitness (log ratio)” value: -3.16 for the first, -1.97 for the second.

First: C22U C76A
Second: U21G C62A
The “polymerase ribozyme fitness (log ratio)” value of the first is lower: -3.53 for the first, -2.26 for the second.

Going from C22G to C22A, the “polymerase ribozyme fitness (log ratio)” value falls from -2.97 to -4.89.

Compared with C22U, C22G G61C C124U U133C is higher in “polymerase ribozyme fitness (log ratio)” value: -3.85 for the first, -2.74 for the second.

Going from U21C C70U A111C to C22G G35C, the “polymerase ribozyme fitness (log ratio)” value falls from -0.344 to -5.43.

Compared with C22U C123A, C22G U96G C104G is lower in “polymerase ribozyme fitness (log ratio)” value: -3.4 for the first, -5.47 for the second.

Going from C22G G44C G48U A121U to C22A G61A U129G, the “polymerase ribozyme fitness (log ratio)” value falls from -3.43 to -5.57.

Going from U21G C72U A75U to C22U G60C, the “polymerase ribozyme fitness (log ratio)” value falls from -1.05 to -4.82.

First: C22G A46G C82A A121G G135U
Second: C22G G69A C79A
The “polymerase ribozyme fitness (log ratio)” value of the first is higher: -2.94 for the first, -5.64 for the second.

First: C22U A83U
Second: C22G C40A
The “polymerase ribozyme fitness (log ratio)” value of the first is higher: -4.1 for the first, -4.68 for the second.

First: C22G A26C C31G G45U G60U
Second: C22G G36A C101U
The “polymerase ribozyme fitness (log ratio)” value of the first is lower: -8.09 for the first, -5.03 for the second.

First: C22G G52A G63U U81G G110A
Second: U21C G63A C82A C124G U133G
The “polymerase ribozyme fitness (log ratio)” value of the first is lower: -7.15 for the first, -0.991 for the second.

Going from C22A A29G C40A G63U A74U G93A G113C G120U to C22G U38A G61U C124U, the “polymerase ribozyme fitness (log ratio)” value rises from -7.43 to -3.08.

Compared with U21C G71A C101U G117A, C22U C40U G57U is lower in “polymerase ribozyme fitness (log ratio)” value: -2.85 for the first, -5.18 for the second.

Compared with U21C G48U U112C A118U, C22G U131A is lower in “polymerase ribozyme fitness (log ratio)” value: 1.11 for the first, -3.47 for the second.

Compared with C22G G39U, U21C C34A C49U U78C G120A is higher in “polymerase ribozyme fitness (log ratio)” value: -3.5 for the first, -2.92 for the second.
